Reference: publication PMC12562601

Experiments:
[1] = molecular target: high-sensitive (HS) (α4)2(β2)3 nicotinic acetylcholine receptor (human) (UniProt P43681)
[2] = molecular target: α3β2 nicotinic acetylcholine receptor (human) (UniProt P32297)
[3] = molecular target: low-sensitive (LS) (α4)3(β2)2 nicotinic acetylcholine receptor (human) (UniProt P43681)

Chain of UniProt P32297 (P32297 32-505, chain 1 of 2): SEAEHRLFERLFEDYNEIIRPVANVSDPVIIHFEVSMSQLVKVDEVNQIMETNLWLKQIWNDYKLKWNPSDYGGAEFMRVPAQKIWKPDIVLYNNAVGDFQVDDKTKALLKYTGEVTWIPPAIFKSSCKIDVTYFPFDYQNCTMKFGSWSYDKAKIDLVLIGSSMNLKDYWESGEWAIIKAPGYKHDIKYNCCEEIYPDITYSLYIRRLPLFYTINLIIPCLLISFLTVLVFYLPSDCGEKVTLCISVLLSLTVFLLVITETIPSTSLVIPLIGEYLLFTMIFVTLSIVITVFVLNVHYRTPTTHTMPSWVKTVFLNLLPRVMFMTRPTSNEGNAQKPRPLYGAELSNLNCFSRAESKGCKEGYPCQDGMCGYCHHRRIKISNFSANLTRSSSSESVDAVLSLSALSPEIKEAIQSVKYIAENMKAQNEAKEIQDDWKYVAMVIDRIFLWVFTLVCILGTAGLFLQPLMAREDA
Chain of UniProt P32297 (P17787 26-502, chain 2 of 2, further chain): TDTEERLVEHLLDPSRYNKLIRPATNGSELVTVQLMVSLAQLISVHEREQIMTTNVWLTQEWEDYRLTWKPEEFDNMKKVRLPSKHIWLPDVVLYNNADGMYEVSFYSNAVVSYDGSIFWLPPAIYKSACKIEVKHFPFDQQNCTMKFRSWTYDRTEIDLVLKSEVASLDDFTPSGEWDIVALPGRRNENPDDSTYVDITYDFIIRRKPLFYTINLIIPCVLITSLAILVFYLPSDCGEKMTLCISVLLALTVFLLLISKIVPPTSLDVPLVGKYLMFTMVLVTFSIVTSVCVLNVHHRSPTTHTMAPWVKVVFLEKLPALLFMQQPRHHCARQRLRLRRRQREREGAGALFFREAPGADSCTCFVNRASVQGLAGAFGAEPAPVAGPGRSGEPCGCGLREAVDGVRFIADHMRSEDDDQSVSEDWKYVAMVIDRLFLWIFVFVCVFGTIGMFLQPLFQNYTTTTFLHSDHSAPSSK

Maximal inhibition of ACh-evoked currents, % (single level fitted for all three datasets), two-electrode voltage clamp in X. laevis oocytes [1]: 31% | Maximal inhibition of ACh-evoked currents, % (single level fitted for all three datasets), two-electrode voltage clamp in X. laevis oocytes [2]: 31% | Maximal inhibition of ACh-evoked currents, % (single level fitted for all three datasets), two-electrode voltage clamp in X. laevis oocytes [3]: 31%
Substance: water-soluble recombinant analog of human prostate stem cell antigen (ws-PSCA) (domain or fragment)
